# Reference: the RNAGym collection of RNA variant scans (doi:10.7554/elife.80360)
# B1: HDV Ribozyme (parent)
# chain: GGCCGGCAUGGUCCCAGCCUCCUCGCUGGCGCCGGCUGGGCAACAUUCCGAGGGGACCGUCCCCUCGGUAAUGGCGAAUGGGACCCA
# Variants of: B1
# Test: self-cleavage, relative activity (ratio to wild type); higher = more cleavage; co-transcriptional
row,Variant,self-cleavage
1,GGCCGGCAUGGUCCCAGUCUCCUCGCUGGCGCCGGCUGGGCAACAUUCCGAGGGGAACGUCCCCUCGGUAAUGGCGAAUGGGACCCA,0.958
2,GGCCGGCAUGGUCCCAGUCUCCUCGCUGGCGCCGGCUGGGCAACAUUCCGAGGGGAUCGUCCCCUCGGUAAUGGCGAAUGGGACCCA,0.867
3,GGCCGGCAUGGUCCCAGUCUCCUCGCUGGGGCCGGCUGGGCAACAUUCCGAGGGGACCGUCCCCUCGGUAAUGGCGAAUGGGACCCA,0.0583
4,GGCCGGCAUGGUCCCAGUCUCCUCGCUGGAGCCGGCUGGGCAACAUUCCGAGGGGACCGUCCCCUCGGUAAUGGCGAAUGGGACCCA,0.156
5,GGCCGGCAUGGUCCCAGUCUCCUCGCUGGCUCCGGCUGGGCAACAUUCCGAGGGGACCGUCCCCUCGGUAAUGGCGAAUGGGACCCA,0.119
6,GGCCGGCAUGGUCCCAGUCUCCUCGCUGGCCCCGGCUGGGCAACAUUCCGAGGGGACCGUCCCCUCGGUAAUGGCGAAUGGGACCCA,0.0326
7,GGCCGGCAUGGUCCCAGUCUCCUCGCUGGCGCCGGCUGGGCAACAUUCCAAGGGGACCGUCCCCUCGGUAAUGGCGAAUGGGACCCA,0.852
8,GGCCGGCAUGGUCCCAGUCUCCUCGCUGGCGCCGGCUGGGCAACAUUCCGAGGGGACCGUCCCCUCGGUAAUGGCGAAUGGGACACA,0.574
9,GGCCGGCAUGGUCCCAGUCUCCUCGCUGGCGCCGGCUGGGCAACGUUCCGAGGGGACCGUCCCCUCGGUAAUGGCGAAUGGGACCCA,0.306
10,GGCCGGCAUGGUCCCAGUCUCCUCGCUGGCGCCGGCUGGGCAACCUUCCGAGGGGACCGUCCCCUCGGUAAUGGCGAAUGGGACCCA,0.0755
11,GGCCGGCAUGGUCCCAGUCUCCUCGCUGGCGCCGUCUGGGCAACAUUCCGAGGGGACCGUCCCCUCGGUAAUGGCGAAUGGGACCCA,0.0791
12,GGCCGGCAUGGUCCCAGUCUCCUCGCUGGCGCCGACUGGGCAACAUUCCGAGGGGACCGUCCCCUCGGUAAUGGCGAAUGGGACCCA,0.0906
13,GGCCGGCAUGGUCCCAGUCUCCUCGCUGGCGCCGGCUGGGGAACAUUCCGAGGGGACCGUCCCCUCGGUAAUGGCGAAUGGGACCCA,0.0314
14,GGCCGGCAUGGUCCCAGUCUCCUCGCUGGCGCCGGCUGGGCAACAUUACGAGGGGACCGUCCCCUCGGUAAUGGCGAAUGGGACCCA,0.644
15,GGCCGGCAUGGUCCCAGUCUCCUCGCUGGCGCCGGCUGGGCAAGAUUCCGAGGGGACCGUCCCCUCGGUAAUGGCGAAUGGGACCCA,0.142
16,GGCCGGCAUGGUCCCAGUCUCCUCGCUGGCGCCGGCUGGGCAAAAUUCCGAGGGGACCGUCCCCUCGGUAAUGGCGAAUGGGACCCA,0.0978
17,GGCCGGCAUGGUCCCAGUCUCCUCGCUGGCGCCGGCUGGGCAACAUUCCGAGGGGACCGUCCCCUAGGUAAUGGCGAAUGGGACCCA,0.407
18,GGCCGGCAUGGUCCCAGUCUCCUCGCUGGCGCCGGCUGGGCAACAUUCCGAGGGGACCGUCCCCUUGGUAAUGGCGAAUGGGACCCA,0.801
19,GGCCGGCAUGGUCCCAGUCUCCUCGCUGGCGCCGGCUGGGCAACAUUCCGAGGGGACCGUCCACUCGGUAAUGGCGAAUGGGACCCA,0.293
20,GGCCGGCAUGGUCCCAGUCUCCUCGCUGGCGCCGGCUGGUCAACAUUCCGAGGGGACCGUCCCCUCGGUAAUGGCGAAUGGGACCCA,0.314
21,GGCCGGCAUGGUCCCAGUCUCCUCGCUGGCGCCGGCUGGGCAACAUUCCGAGGGGACCGUCCCGUCGGUAAUGGCGAAUGGGACCCA,0.736
22,GGCCGGCAUGGUCCCAGUCUCCUCGCUGGCGCCGGCUGGGCAACAUUCCGAGGGGACCGUCCCAUCGGUAAUGGCGAAUGGGACCCA,0.332

row,Variant,self-cleavage
1,GGCCGGCAUGGUCCCAGUCUCCUCGCUGGCGCCGGCUGGGCAACAUUCCGAGGGGACCGUCCCUUCGGUAAUGGCGAAUGGGACCCA,0.751
2,GGCCGGCAUGGUCCCAGUCUCCUCGCUGGCGCCGGCUGGGCAACAUUCCGAGGGGACCGUCCCCUCGGUAAUGGCGCAUGGGACCCA,0.342
3,GGCCGGCAUGGUCCCAGUCUCCUCGCUGGCGCCGGCUGGGCAACAUUCCGAGGGGACCGUCCCCUCGGUAAUGGCGUAUGGGACCCA,0.0678
4,GGCCGGCAUGGUCCCAGUCUCCUCGCUGGCGCCGGCUGGGCAACAUUCCGAGGGGACCGUCCCCUCGGUAAUGGCGGAUGGGACCCA,0.623
5,GGCCGGCAUGGUCCCAGUCUCCUCGCUGGCGCUGGCUGGGCAACAUUCCGAGGGGACCGUCCCCUCGGUAAUGGCGAAUGGGACCCA,0.463
6,GGCCGGCAUGGUCCCAGUCUCCUCGCUGGCGCCGGCUGGGCAACAUUCUGAGGGGACCGUCCCCUCGGUAAUGGCGAAUGGGACCCA,0.587
7,GGCCGGCAUGGUCCCAGUCUCGUCGCUGGCGCCGGCUGGGCAACAUUCCGAGGGGACCGUCCCCUCGGUAAUGGCGAAUGGGACCCA,0.0462
8,GGCCGGCAUGGUCCCAGUCUCAUCGCUGGCGCCGGCUGGGCAACAUUCCGAGGGGACCGUCCCCUCGGUAAUGGCGAAUGGGACCCA,0.27
9,GGCCGGCAUGGUCCCAGUCUCCUCGCUGGCGCCGGCUGGGCAACAUUCCGAGGGGACCGUCCCCUCGGUAAUGGCGAAUGGGUCCCA,0.243
10,GGCCGGCAUGGUCCCAGUCUCCUCGCUGGCGCCGGCUGGGCAACAUUCCGAAGGGACCGUCCCCUCGGUAAUGGCGAAUGGGACCCA,0.737
11,GGCCGGCAUGGUCCCAGUCUCCUCGCUGGCGCCGGCUGUGCAACAUUCCGAGGGGACCGUCCCCUCGGUAAUGGCGAAUGGGACCCA,0.0997
12,GGCCGGCAUGGUCCCAGUCUCCUCGCUGGCGCCGGCUGAGCAACAUUCCGAGGGGACCGUCCCCUCGGUAAUGGCGAAUGGGACCCA,0.0302
13,GGCCGGCAUGGUCCCAGUCUCCUCGCUGGCGCCGGCUGGGCAACAUUCCGAGGGGACCGUCCCCUCGGUAAUGGCGACUGGGACCCA,0.185
14,GGCCGGCAUGGUCCCAGUCUCCUCGCUGGCGCCGGCUGGGCAACAUUCCGAGGGGACCGUCACCUCGGUAAUGGCGAAUGGGACCCA,0.599
15,GGCCGGCAUGGUCCCAGUCUCCUCGCUGGCGCCGGCUGGGCAACAUUCCGAGGGGACCGUCGCCUCGGUAAUGGCGAAUGGGACCCA,0.543
16,GGCCGGCAUGGUCCCAGUCUCCUCGCUUGCGCCGGCUGGGCAACAUUCCGAGGGGACCGUCCCCUCGGUAAUGGCGAAUGGGACCCA,0.0573
17,GGCCGGCAUGGUCCCAGUCUCCUCGCUAGCGCCGGCUGGGCAACAUUCCGAGGGGACCGUCCCCUCGGUAAUGGCGAAUGGGACCCA,0.0346
18,GGCCGGCAUGGUCCCAGUCUCCUCGCUGGCGCCGGCUGGGCAACAUUCCGUGGGGACCGUCCCCUCGGUAAUGGCGAAUGGGACCCA,0.701
19,GGCCGGCAUGGUCCCAGUCUCCUCGCUGGCGCCGGCUGGGCUACAUUCCGAGGGGACCGUCCCCUCGGUAAUGGCGAAUGGGACCCA,0.0627
20,GGCCGGCAUGGUCCCAGUCUCCUCGCUGGCGCCGGCUGGGCGACAUUCCGAGGGGACCGUCCCCUCGGUAAUGGCGAAUGGGACCCA,0.151
21,GGCCGGCAUGGUCCCAGUCUCCUCGCUGGCGCCGGCUGGGCAACAUUCCGAGGGGACCGUCCCCUCGGUAAUGGCGAAUGGGAUCCA,0.44
22,GGCCGGCAUGGUCCCAGUCUCCUCGCUGGCGCCGGCUGGGCAACAUUCCGAGGGGACCGUCCCCUCGGUAAUGGCGAAUGGGAGCCA,0.308

row,Variant,self-cleavage
1,GGCCGGCAUGGUCCCAGUCUCCUCGCUGGCGCCGGCUGGGCAACAUUCCGAGGGGACCGUCCCCUCGGUAAUGGCGAAUGGGAACCA,0.573
2,GGCCGGCAUGGUCCCAGUCUCCUCGGUGGCGCCGGCUGGGCAACAUUCCGAGGGGACCGUCCCCUCGGUAAUGGCGAAUGGGACCCA,0.869
3,GGCCGGCAUGGUCCCAGUCUCCUCGCUGGCGCCGGCUUGGCAACAUUCCGAGGGGACCGUCCCCUCGGUAAUGGCGAAUGGGACCCA,0.0875
4,GGCCGGCAUGGUCCCAGUCUCCUCGCUGGCGCCGGCUCGGCAACAUUCCGAGGGGACCGUCCCCUCGGUAAUGGCGAAUGGGACCCA,0.0297
5,GGCCGGCAUGGUCCCAGUCUCCUCGCUGGCGCCGGCUGGGCAUCAUUCCGAGGGGACCGUCCCCUCGGUAAUGGCGAAUGGGACCCA,0.138
6,GGCCGGCAUGGUCCCAGUCUCCUCGCUGGCGCCGGCUGGGCAACAUUCCGAGGGGACCGUCCCCUCGGUAAUGGCGAAUGGGACCAA,0.82
7,GGCCGGCAUGGUCCCAGUCUCCUCGCUGGCGCCGGCUGGGCAACAUUCCGAGGGGACCGUCCCCUCGGUAAUGGCGAAUGGGACCUA,0.886
8,GGCCGGCAUGGUCCCAGUCUCCUCGCUGGCGACGGCUGGGCAACAUUCCGAGGGGACCGUCCCCUCGGUAAUGGCGAAUGGGACCCA,0.166
9,GGCCGGCAUGGUCCCAGUCUCCUCGCUGGCGCCGGCUGGGCAACAUUCCGAGGGGACCGUCCCCUCGGUAGUGGCGAAUGGGACCCA,0.504
10,GGCCGGCAUGGUCCCAGUCUCCUCGCUGGCGCCGGCUGGGCAACAUUCCGAGGGGACCGUCCCCUCGGUAAUGGGGAAUGGGACCCA,0.133
11,GGCCGGCAUGGUCCCAGUCUCCUCGCUGGCGCCGGCUGGGCAACAUUCCGAGGGGACCGUCCCCUCGGUAAUGGUGAAUGGGACCCA,0.134
12,GGCCGGCAUGGUCCCAGUCUCCUCUCUGGCGCCGGCUGGGCAACAUUCCGAGGGGACCGUCCCCUCGGUAAUGGCGAAUGGGACCCA,0.0297
13,GGCCGGCAUGGUCCCAGUCUCCUCCCUGGCGCCGGCUGGGCAACAUUCCGAGGGGACCGUCCCCUCGGUAAUGGCGAAUGGGACCCA,0.201
14,GGCCGGCAUGGUCCCAGUCUCCUCACUGGCGCCGGCUGGGCAACAUUCCGAGGGGACCGUCCCCUCGGUAAUGGCGAAUGGGACCCA,0.104
15,GGCCGGCAUGGUCCCAGUCUGCUCGCUGGCGCCGGCUGGGCAACAUUCCGAGGGGACCGUCCCCUCGGUAAUGGCGAAUGGGACCCA,0.151
16,GGCCGGCAUGGUCCCAGUCUCCUGGCUGGCGCCGGCUGGGCAACAUUCCGAGGGGACCGUCCCCUCGGUAAUGGCGAAUGGGACCCA,0.0665
17,GGCCGGCAUGGUCCCAGUCUCCUAGCUGGCGCCGGCUGGGCAACAUUCCGAGGGGACCGUCCCCUCGGUAAUGGCGAAUGGGACCCA,0.123
18,GGCCGGCAUGGUCCCAGUCUCCUCGCUGGCGCCGGGUGGGCAACAUUCCGAGGGGACCGUCCCCUCGGUAAUGGCGAAUGGGACCCA,0.142
19,GGCCGGCAUGGUCCCAGUCUCCUCGCUGGCGCCGGCUGGGCAACAUUCCGAGGGGACCGUUCCCUCGGUAAUGGCGAAUGGGACCCA,0.481
20,GGCCGGCAUGGUCCCAGUCUCCUCGCUGGCGCCGGCUGGGCAACAUUCCGAGGGGACGGUCCCCUCGGUAAUGGCGAAUGGGACCCA,0.778
